Target: azurin from Pseudomonas aeruginosa (Pseudomonas aeruginosa) (UniProt P00282)
Assay: SPR equilibrium titration, azurin immobilised on CM5

Sequence of azurin from Pseudomonas aeruginosa (Pseudomonas aeruginosa) (P00282 21-148 limits assumed): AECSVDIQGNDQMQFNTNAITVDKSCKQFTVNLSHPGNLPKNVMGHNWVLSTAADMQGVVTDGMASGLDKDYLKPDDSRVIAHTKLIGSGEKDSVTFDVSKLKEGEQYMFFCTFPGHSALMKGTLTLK

NCAM (from UniProt P13591 20-718) (receptor)
Kd: 20 nM
